“Also recorded” adds a separate entry of the source.
Experiments:
[1] = Basic pharmacokinetics of subcutaneous elafin in RD-treated male mice; assay type: in vivo; details: natural elafin 1 mg/kg subcutaneous
Procedure: FIG. 36. Subcutaneous and oral administration of modified elafin inhibited hyperphagia and hyperglycemia in HFD-treated male mice. (A) Elafin (1 mg/kg) was injected into RD-treated male mice subcutaneously. Tail-vein blood samples were collected for elafin ELISA. This mouse experiment was intended for the determination of basic pharmacokinetics of elafin, but not the determination of physiology of elafin. (B) HFD-treated mice were treated with either oral gavage of Elafin-Eudragit formulation (10 mg/kg) daily or subcutaneous injection of PEG-elafin (3.25 mg/kg) every 48 h for 14 days. Serum elafin levels. (C) Serum leptin levels. (D) Serum IFNγ and IL-1β levels. (E) Daily food consumption. (F) Change in fat mass. (G) Change in body weight over 14 days. (H) Fasting blood glucose levels. Each group consists of 8 mice.

[2] = cited from earlier work
[3] = test system: primary human intestinal fibroblasts from CD patients; assay: Elafin exposure of primary human intestinal fibroblasts from CD patients (Example 1); assay type: cell-based; details: elafin 24 hours
Procedure: FIG. 6. Elafin promotes fibrogenesis in human colonic fibroblasts. (A) The human colonic CCD-18Co fibroblasts were incubated with 100 μl/ml (10%) of human sera from normal, stricturing CD, and non-stricturing CD patients in serum-free DMEM for 24 hours. (B) The human colonic CCD-18Co fibroblasts were incubated with 100 μl/ml (10%) of human sera from high elafin CD group (>8000 pg/ml) and low elafin CD group (<8000 pg/ml) in serum-free DMEM for 24 hours. (C) Serum-starved CCD-18Co fibroblasts were pretreated with 15 μg/ml of anti-elafin neutralizing antibody or control antibody for 30 minutes, followed by exposure to (100 μl/ml) human sera from normal and stricturing CD patients for 24 hours. Six serum donors per group. […] Pro-COL1A1 protein levels in cell lysates were determined by ELISA. (E) Serum-starved primary human intestinal fibroblasts from CD patients were exposed to elafin for 24 hours. mRNA expression was determined by real-time RT-PCR. […]
Total RNA was isolated by an RNeasy kit (#74104, Qiagen) and reverse transcribed into cDNA by a high-capacity cDNA RT kit (#4368813, ThermoFisher). Quantitative PCR reactions were run with Fast Universal PCR master mix (#4352042, ThermoFisher) in a Bio-Rad CFX384 system. […] Relative mRNA quantification was performed by comparing test groups and normal control group, after normalization with endogenous control gene human 18S (Hs99999901_s1).

[4] = test system: 3T3-L1 adipocytes; assay: Lipid accumulation and gene expression in 3T3-L1 adipocytes; assay type: cell-based, mouse; details: 24-h; elafin 10 ng/ml, miRNA mimics 75 ng/ml
From the text: FIG. 34. Immune cell-derived miR181b-5p and miR219-5p induced leptin mRNA expression in 3T3-L1 adipocytes. (A) Mouse serum exosomal miRNA expression was profiled by a PCR array. miR219-5p, miR210-3p, and miR181-5p were undetectable in the serum exosomes of HFD-treated mice without elafin overexpression. These three miRNAs were detected in the serum exosomes of elafin-overexpressing HFD-treated mice only. Each group consists of 6 mice. […] (C) The positive correlation between serum elafin levels and miRNAs (miR181b-5p and miR210-3p, but not miR219-5p) in the men with T2DM. […]
Cell culture experiments. […] Adipocyte lipid accumulation was determined using Oil Red O staining, as described previously.
Quantitative real-time reverse transcription-polymerase chain reaction (RT-PCR) and miRNA PCR array. […] Quantitative PCR reactions were run with Fast Universal PCR master mix (#4352042, ThermoFisher) in a Bio-Rad CFX384 using cataloged primers (ThermoFisher) for human elafin (Hs00160066_m1), human leptin (Hs00174877_m1), mouse Cd36 (Mm00432403_m1), mouse adiponectin (Mm00456425_m1), mouse leptin (Mm00434759_m1), and mouse Tnf (Mm00443258_m1). Relative mRNA quantification was performed by comparing test groups and control group, after normalization with endogenous control gene human 18S (Hs99999901_s1) or mouse Gapdh (Mm99999915_g1).

Elafin: small (6 kDa) human elastase-specific protease inhibitor and antimicrobial peptide; active form SEQ ID NO: 2 (AQEPVKGPVSTKPGSCPIILIRCAMLNPPNRCLKDTDCPGIKKCCEGSCGMACFVPQ; listed as Homo sapiens)
half-life in circulation [1]: 3 h | increase of plasma concentration ([2]; 200 mg/person intravenous): > 3000 fold | adverse effects / tolerability ([2]; 200 mg/person): does not cause any adverse effects; also recorded: well tolerated | collagen (COL3A1 and COL1A2), ACTA2 and TGF-b1 mRNA expression [3]: increased | lipid accumulation; Cd36 and adiponectin mRNA expression [4]: affected neither
